Test results as given in the supplement of paper PMC10724198.
± gives the standard deviation of the averaged measurements.

Test system: Saccharomyces cerevisiae
Test: protein stability index of tFT-peptide fusion (C-terminal peptide) (PSI (0-1 scale)); higher = more stable (slower turnover)
Details: genetic background: wild type; temperature: 30 C
Protocol: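 Multiplexed protein stability (MPS) profiling in S. cerevisiae. Random 12-aa peptides (tFT-X12 library) are fused to the C-terminus of a sfGFP-mCherry tandem fluorescent timer, after mCherry and a GGGS linker. Cells are FACS-sorted into 8 mCherry/sfGFP bins and deep-sequenced. The protein stability index (PSI) is the read-weighted bin average, scaled from 0 (unstable) to 1 (stable). Only peptides with >10 reads are reported; cells were grown at 30 °C in SC-His with glucose.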
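Note: PSI is a weighted mean of sequencing reads over stability bins, variants kept only with over 10 reads, mCherry proximal and sfGFP distal, peptide attached via GGGS linker.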

Sequence | protein stability index
GRPSSMCTGWKV | 0.74 ± 0.054
GRPYPPHFQHPS | 0.773 ± 0.022
GRRRCGGGVEVC | 0.668 ± 0.014
GRSCSSWSSWGF | 0.716 ± 0.01
GRSGGVGVLWGG | 0.728 ± 0.017
GRSGSGGTWELG | 0.643 ± 0.039
GRSHVGGCGGEG | 0.693 ± 0.035
GRSRAALASHIL | 0.612 ± 0.058
GRTCCGGGVGFG | 0.595 ± 0.033
GRTEMNRIETTS | 0.699 ± 0.037
GRVRGVEGIGKG | 0.663 ± 0.018
GRVVLRISCAQI | 0.6144 ± 0.00074
GRVVVKTFRDFF | 0.635 ± 0.064
GSAFIRFRSSFG | 0.638 ± 0.022
GSCTVLPPPGPP | 0.724 ± 0.018
GSFGQLIIRYSS | 0.568 ± 0.0088
GSFLGVRPGNVF | 0.828 ± 0.055
GSGGGEVCGCGG | 0.681 ± 0.048
GSGIFHPVDLGL | 0.688 ± 0.02
GSGLEAGVRRWG | 0.67 ± 0.016
GSGRGRETYIAK | 0.67947 ± 0.0002
GSGRPARCVEGG | 0.644 ± 0.03
GSGVGSRARRGR | 0.695 ± 0.02
GSHGRLSWHVSR | 0.7008 ± 0.00074
GSLEGGGSGGGW | 0.6743 ± 0.0048
GSLFLRQHTLLR | 0.645 ± 0.0077

Sequence | protein stability index
GSLRRSHYLLRA | 0.588 ± 0.086
GSLVGATVSKEC | 0.63 ± 0.083
GSLWGAFFRGLL | 0.688 ± 0.04
GSLWGGFFRGLL | 0.70105 ± 0.00018
GSMCYRTVTNLR | 0.593 ± 0.017
GSMVWVRCGLER | 0.634 ± 0.022
GSNPYNRHLINI | 0.693 ± 0.02
GSPALGSCSWSR | 0.627 ± 0.057
GSPCPIVLICGL | 0.504 ± 0.034
GSQHSPRPFFFQ | 0.72 ± 0.038
GSQLFESVVVRV | 0.679 ± 0.061
GSQPSQRRSSGA | 0.679 ± 0.014
GSRAWERSERVR | 0.649 ± 0.084
GSRIVCFWSGAG | 0.717 ± 0.011
GSRLIGGFIVVG | 0.6365 ± 0.0021
GSRPPPRPLFPS | 0.697 ± 0.048
GSSAVGWGGVWW | 0.796 ± 0.11
GSSGPCRSHVLG | 0.694 ± 0.02
GSSYDSEISRQS | 0.732 ± 0.0089
GSTSLILSMSPA | 0.693 ± 0.027
GSVCVGGFGFFG | 0.657 ± 0.039
GSVLPPPSSPPL | 0.704 ± 0.013
GSWDEFGVYSRV | 0.6126 ± 0.0058
GTALERMWLEIE | 0.7387 ± 0.0024
GTLGRMVTPAAW | 0.6358 ± 0.0039
GTPHSKGVGFDH | 0.655 ± 0.048

Sequence | protein stability index
GTRQWPARSDVV | 0.692 ± 0.031
GTVEDVLIFYEP | 0.691 ± 0.1
GTVLSVARGWCV | 0.692 ± 0.11
GTWSVYSEKFVG | 0.652 ± 0.0081
GVAGRRGQRDVR | 0.746 ± 0.088
GVARSMAGWARC | 0.703 ± 0.035
GVDCPGPKRDRK | 0.626 ± 0.011
GVESRSCCVFWG | 0.72 ± 0.012
GVFIGWAGYKGT | 0.661 ± 0.027
GVFVVEWSGGEG | 0.586 ± 0.064
GVGCVGWGSSCA | 0.673 ± 0.093
GVGGGRVLLLRL | 0.614 ± 0.042
GVGGGWVGCGVI | 0.764 ± 0.06
GVGGVLLCCCIV | 0.573 ± 0.35
GVGMWCSRLRVG | 0.5952 ± 0.00044
GVGRGGSSRWLG | 0.646 ± 0.06
GVGSVQRCGGGG | 0.6771 ± 0.0035
GVGVWVVLGRAG | 0.644 ± 0.031
GVGVWWRGVIMG | 0.615 ± 0.0095
GVIFPQFDPCAL | 0.788 ± 0.056
GVKSSRRSLHGS | 0.738 ± 0.037
GVLGGGVFGGSV | 0.631 ± 0.077
GVLIDVFGRSAV | 0.696 ± 0.029
GVLLGSKFCQQL | 0.641 ± 0.093
GVLPRPPPTEGT | 0.722 ± 0.041
GVLQEYIGKKQK | 0.723 ± 0.043

Sequence | protein stability index
GVLQYPPCTYPH | 0.675 ± 0.0078
GVLSLFGFNTVV | 0.71 ± 0.16
GVMTGGPPGGAG | 0.642 ± 0.04
GVPRNSCHYPYG | 0.6462 ± 0.0049
GVPVGVDSFHGV | 0.66848 ± 4.1e-05
GVRAVRSCRMQR | 0.702 ± 0.072
GVRCCGLCGVGV | 0.615 ± 0.0088
GVRGKDCMGGGM | 0.613 ± 0.063
GVRLRNLTIITI | 0.697 ± 0.037
GVRRVVKGTKGC | 0.662 ± 0.013
GVSCIAEGRGGL | 0.668 ± 0.025
GVSCIAEGRGGW | 0.7143 ± 0.00091
GVSWMRAGFEFM | 0.779 ± 0.021
GVSWSWRGCCRR | 0.7109 ± 0.0058
GVVGVQTLIISN | 0.653 ± 0.043
GVVGWWWVRGMG | 0.756 ± 0.023
GVVIGGAGYKGT | 0.633 ± 0.058
GVVSSSIFDLWS | 0.746 ± 0.12
GVVVIVKYKMGV | 0.579 ± 0.031
GVWLWVLGACRR | 0.657 ± 0.057
GVWVRGTRRGWG | 0.741 ± 0.2
GVYRGNNGSPVK | 0.689 ± 0.0086
GWAIKGPFTLRS | 0.663 ± 0.044
GWARQAADGWGG | 0.709 ± 0.089
GWCGGAIIRAWD | 0.678 ± 0.039
GWDRNVGWVVGR | 0.735 ± 0.044

Sequence | protein stability index
GWESCLGVTRSV | 0.69 ± 0.018
GWEYMDERVNQS | 0.74 ± 0.013
GWGGGEGVEGEP | 0.678 ± 0.048
GWGGGGGGGAGG | 0.665 ± 0.057
GWGGGGGGRGWG | 0.71 ± 0.055
GWGSGSYRRRAV | 0.695 ± 0.055
GWMGGFLVMSID | 0.686 ± 0.037
GWNRVGDWGVCG | 0.736 ± 0.01
GWRAGGTGAPSR | 0.653 ± 0.041
GWRHFVLFWCGL | 0.752 ± 0.022
GWSCGGVGGGLG | 0.71 ± 0.04
GWSVWFGLGGVW | 0.689 ± 0.022
GWTVCVFGSCGV | 0.692 ± 0.051
GWWVVTLRSGLR | 0.651 ± 0.09
GYCLGVGLRLLH | 0.562 ± 0.018
GYRMEGRVDSGG | 0.6495 ± 0.004
GYTRYYRLLQSR | 0.642 ± 0.028
GYTSGEEGAVTA | 0.624 ± 0.016
HAPALSSTPRLL | 0.6836 ± 0.0064
HAPPPPDASPPL | 0.677 ± 0.051
HATPPAPHSVSS | 0.774 ± 0.036
HCFWVVTGGSWF | 0.691 ± 0.06
HCPIPWASLNCL | 0.665 ± 0.0082
HDAPTRQLTLPG | 0.663 ± 0.031
HDETKAYLAPGQ | 0.697 ± 0.037
HFGPRTTLCAPD | 0.666 ± 0.034

Sequence | protein stability index
HGLESMNRYRWI | 0.555 ± 0.016
HGLLDPLSILLY | 0.668 ± 0.013
HGNFLTALVGRI | 0.669 ± 0.046
HGSVGRIAHVLS | 0.6672 ± 0.0062
HGVQEFRVAPEF | 0.738 ± 0.035
HHEDGRPTCQAN | 0.677 ± 0.046
HHPLGSPPVPPP | 0.729 ± 0.039
HHPTQRPRHRLG | 0.683 ± 0.082
HIKSENKEKGKI | 0.624 ± 0.022
HILSPRPAIGVL | 0.612 ± 0.021
HIPRLPRPTRAP | 0.682 ± 0.059
HIYHIRFANKRG | 0.657 ± 0.013
HKNPQKEVIAKT | 0.744 ± 0.058
HLDVRGTRRMGT | 0.669 ± 0.042
HLGPPPGRVFAV | 0.6194 ± 0.0052
HLPGFAVVFPFP | 0.717 ± 0.032
HLPPMLSCTLRS | 0.657 ± 0.046
HLPRHVSLLGPP | 0.671 ± 0.0079
HLPSPLPSPSFH | 0.6061 ± 0.0017
HLRPRYSLVPAT | 0.651 ± 0.048
HLSPGRLPPPVQ | 0.7136 ± 0.006
HMLSGRSFVRGD | 0.69 ± 0.038
HNFYKLNLDHLK | 0.649 ± 0.061
HPGPPPPPAAAA | 0.679 ± 0.007
HPKPNLPPAAVH | 0.6854 ± 0.0049
